Results on four molecules are retold here after patent US8546337B2, “Self-assembling peptide nanoparticles useful as vaccines” (Alpha-O-Peptides AG, priority 2008, dated 2013).

The subject of series [1] is DR1, DR2, DR4, DR5, DRw6, DR7 and DR9 molecules. Particulars: cited from earlier work.
Series [2] is classed as physicochemical. Particulars: DLS at pH 6.5.
The nature of series [3]: analytical ultracentrifugation of SAPN. In kind it is physicochemical. The note with it: for MW / No. of monomers: SAPN. On the procedure: Three conditions were tested for assembling nanoparticles from the monomeric building block SEQ ID NO:33. The molecular weight (MW) of the SAPN was assessed by analytical ultracentrifugation: The peptide was dissolved at 0.42 mg/ml, 0.34 mg/ml, and 0.21 mg/ml, in 150 mM NaCl, 20 mM Tris, pH 7.5. The measured MW corresponds to SAPN composed of about 330 monomers, i.e. a nanoparticle with more monomers than needed for a regular polyhedron with 60 asymmetric units (Table 23).

[4] abbreviates: peptide 0.21 mg/ml in 150 mM NaCl, 20 mM Tris, pH 7.5.
Setting [5] is: peptide 0.34 mg/ml in 150 mM NaCl, 20 mM Tris, pH 7.5.
Where [6] appears, read: peptide 0.42 mg/ml in 150 mM NaCl, 20 mM Tris, pH 7.5.

On to “CS.T3 peptide: 17 C-terminal amino acids of P. falciparum circum sporozoite protein CS with two cysteines replaced by alanines (RLLLRLEELERRLEELEKKIAKMEKASSVFNVVLAALRRRLEELAR; trimeric coiled coil with P. falciparum HTL epitope)”, for which the “pan DR activity in cell proliferation assay” value in series [1] is reported as “stimulatory”.

B1: MGHHHHHHASWKWDGGLVPRGSWQTWNAKWDQWSNDWNAWRSDWQAWKDDWAFWRALWMGGRLLLRLEELERRLEELEKKIAKMEKASSVFNVVLAALRRRLEELARGGSGANANPNANPNANPNANP (protein)
chain: MGHHHHHHASWKWDGGLVPRGSWQTWNAKWDQWSNDWNAWRSDWQAWKDDWAFWRALWMGGRLLLRLEELERRLEELEKKIAKMEKASSVFNVVLAALRRRLEELARGGSGANANPNANPNANPNANP
modifications: pentameric coiled coil with tryptophane zipper and trimeric coiled coil with P. falciparum HTL epitope
For the molecule B1, in series [2], the particle diameter amounted to 44.6 nm and the polydispersity index is recorded as 19.6%.

B2: MGHHHHHHGDWKWDGGLVPRGSDEMLRELQETNAALQDVRELLRQQVKQITFLRALLMGGRLLARLEELERRLEELERRLEELERAINTVDLELAALRRRLEELAR (protein)
chain: MGHHHHHHGDWKWDGGLVPRGSDEMLRELQETNAALQDVRELLRQQVKQITFLRALLMGGRLLARLEELERRLEELERRLEELERAINTVDLELAALRRRLEELAR
modifications: building block comprising His-tag, COMP and P5c6
In the case of B2, in series [3] (analytical ultracentrifugation), the “molecular weight of the SAPN” value is recorded as “about 4 MD”. In series [3] (from measured MW, 150 mM NaCl, 20 mM Tris, pH 7.5), the “number of monomers (peptide chains) per SAPN” value is “about 330”.

B3: SEQ ID NO: 33 (protein)
chain: B2 chain
modifications: building block comprising His-tag, COMP and P5c6
Take B3: the results for the MW in series [3] (setting [4]), in series [3] (setting [5]) and in series [3] (setting [6]) were 4066 kDa, 4128 kDa and 4331 kDa, respectively. Moreover, the No. of monomers in series [3] (setting [4]) stood at 323; in series [3] (setting [5]), 328; in series [3] (setting [6]), 344.
